The assay has as its target FLAG-HA epitope-tagged H3.1 (UniProt P68431). Put plainly: proximity ligation.

Results on one substance are retold here after paper PMC9540345.

The substance “DAXX (death domain-associated protein 6) (from UniProt Q9UER7 1-740) (natural protein)” gave a fold enrichment of PLA foci over empty vector control cells of 1.9 fold.
